Measured values from paper doi:10.1101/2025.05.13.653815, “Roles of the MO25 protein Pmo25 in contractile-ring stability and localization of the NDR kinase Sid2 during cytokinesis” (bioRxiv, 2025).

Tests used:
[1] = biological target: T1, MBP-Ync13-(591-1130)-6His (S. pombe, UniProt O13683 591-1130); assay: pull-down; Kd by supernatant depletion: various concentrations of MBP-Ync13 on amylose beads with a fixed low concentration of Pmo25-(19-329)-6His, 1 h at 4°C; supernatant on SDS-PAGE, Coomassie Blue; one site binding equation; settings: both partners purified
T1 construct: The cloning of this truncation is not described; not shown: MBP, N-terminal, kept; His6, C-terminal, kept
T1 sequence (looked up): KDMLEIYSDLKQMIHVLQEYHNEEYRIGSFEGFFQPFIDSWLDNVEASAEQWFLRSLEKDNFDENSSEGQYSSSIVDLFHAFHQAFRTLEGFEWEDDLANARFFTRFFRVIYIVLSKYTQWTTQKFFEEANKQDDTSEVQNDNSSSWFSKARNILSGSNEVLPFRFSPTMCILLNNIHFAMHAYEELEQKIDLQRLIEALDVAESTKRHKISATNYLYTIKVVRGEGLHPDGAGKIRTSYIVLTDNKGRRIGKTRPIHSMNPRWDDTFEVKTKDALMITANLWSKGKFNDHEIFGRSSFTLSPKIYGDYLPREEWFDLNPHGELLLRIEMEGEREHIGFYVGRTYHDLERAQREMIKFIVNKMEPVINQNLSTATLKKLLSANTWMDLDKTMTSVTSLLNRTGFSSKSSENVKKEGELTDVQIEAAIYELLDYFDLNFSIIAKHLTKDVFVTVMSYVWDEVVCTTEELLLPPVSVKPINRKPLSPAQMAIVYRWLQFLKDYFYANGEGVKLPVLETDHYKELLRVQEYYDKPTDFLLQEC

[2] = biological target: T2, MBP-Ync13-full length-6His (S. pombe, UniProt O13683 1-1237); assay: as above; settings: both partners purified
T2 construct: pET21a-MBP: MBP-TEV-GGSGGS stands before Ync13, 6xHis after it; not shown: MBP, N-terminal, kept; His6, C-terminal, kept
T2 sequence (looked up): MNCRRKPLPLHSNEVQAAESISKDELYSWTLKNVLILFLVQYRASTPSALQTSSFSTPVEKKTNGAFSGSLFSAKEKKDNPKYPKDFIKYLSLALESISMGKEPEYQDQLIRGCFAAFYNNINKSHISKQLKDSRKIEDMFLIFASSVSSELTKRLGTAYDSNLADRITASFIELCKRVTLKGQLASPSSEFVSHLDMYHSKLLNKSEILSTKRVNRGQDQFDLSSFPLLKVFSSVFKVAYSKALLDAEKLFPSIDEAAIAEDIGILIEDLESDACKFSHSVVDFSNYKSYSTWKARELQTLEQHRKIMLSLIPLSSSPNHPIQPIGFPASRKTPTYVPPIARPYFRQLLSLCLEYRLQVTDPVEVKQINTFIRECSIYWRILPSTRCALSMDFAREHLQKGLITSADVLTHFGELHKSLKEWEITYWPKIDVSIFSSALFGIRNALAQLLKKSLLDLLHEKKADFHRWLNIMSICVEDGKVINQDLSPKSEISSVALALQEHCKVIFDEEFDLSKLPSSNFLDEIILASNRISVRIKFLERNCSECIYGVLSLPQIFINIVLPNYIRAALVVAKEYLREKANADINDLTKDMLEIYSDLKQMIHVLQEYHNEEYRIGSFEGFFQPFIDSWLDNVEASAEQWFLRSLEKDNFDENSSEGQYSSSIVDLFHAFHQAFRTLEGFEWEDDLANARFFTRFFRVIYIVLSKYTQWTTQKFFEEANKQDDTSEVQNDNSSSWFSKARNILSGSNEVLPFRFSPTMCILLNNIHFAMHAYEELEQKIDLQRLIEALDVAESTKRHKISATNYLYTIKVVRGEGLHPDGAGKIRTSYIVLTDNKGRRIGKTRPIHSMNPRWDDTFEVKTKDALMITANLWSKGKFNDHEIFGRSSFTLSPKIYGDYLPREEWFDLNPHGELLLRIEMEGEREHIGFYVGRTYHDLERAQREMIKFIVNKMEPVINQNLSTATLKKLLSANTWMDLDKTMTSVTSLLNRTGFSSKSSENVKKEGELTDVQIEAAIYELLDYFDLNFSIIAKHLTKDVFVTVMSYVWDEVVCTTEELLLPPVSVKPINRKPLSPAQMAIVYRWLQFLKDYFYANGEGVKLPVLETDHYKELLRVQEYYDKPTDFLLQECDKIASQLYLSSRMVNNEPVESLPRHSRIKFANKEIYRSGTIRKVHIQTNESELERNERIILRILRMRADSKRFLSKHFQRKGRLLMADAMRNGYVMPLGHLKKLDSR

Kd [1]: 620 nM | Kd [2]: 490 nM
B1: Pmo25-(19-329)-6His (domain or fragment, S. pombe, UniProt Q9P7Q8 19-329, looked up)
chain: LCDNLPKLEINNDKKKSFEEVSKCLQNLRVSLCGTAEVEPDADLVSDLSFQIYQSNLPFLLVRYLPKLEFESKKDTGLIFSALLRRHVASRYPTVDYMLAHPQIFPVLVSYYRYQEVAFTAGSILRECSRHEALNEVLLNSRDFWTFFSLIQASSFDMASDAFSTFKSILLNHKSQVAEFISYHFDEFFKQYTVLLKSENYVTKRQSLKLLGEILLNRANRSVMTRYISSAENLKLMMILLRDKSKNIQFEAFHVFKLFVANPEKSEEVIEILRRNKSKLISYLSAFHTDRKNDEQFNDERAFVIKQIERL
notes: pET21a, between the N-terminal T7 tag and the C-terminal 6xHis tag; not shown: His6, C-terminal, kept
